Laboratory results published in US7063946B2, “Methods, reagents, kits and apparatus for protein function analysis” (Meso Scale Technologies, LLC., priority 2001, dated 2006).

How the values were obtained:
pEY = test: In vitro kinase library screen: activity towards pEY; format: biochemical; details: 5 ul of expressed protein
Procedure: Proteins were produced in an in vitro transcription and translation reaction. […] The unbound components of the reaction containing endogenous kinases were removed by three washes with TT-buffer (25 mM Tris-HCl buffer pH 7.4 and 0.004% Triton), two five minutes washings with high-salt wash buffer (25 mM Tris-HCl buffer pH 7.4, 0.004% Triton, 1M NaCl and 5 mM DTT) and 3 more washes with TT-buffer. To these immobilized and purified proteins a tyrosine kinase substrate, 5 nM pEY (poly Glu-Tyr, Sigma, MO), was added in a 50 μl reaction solution containing 5 mM MgCl2, 5 mM MnCl2, 100 μM ATP, 25 mM Tris-HCl buffer pH 7.4, 0.05 mM Na3VO4, 0.004% TritonX-100, 2 mM DTT and EDTA-free protease inhibitor (Roche Molecular Biochemicals). This mixture was incubated with shaking at room temperature overnight to allow phosphorylation of the pEY substrate by the immobilized kinases. Following this incubation, 45 μl of this mixture was transferred to a streptavidin or avidin-coated NPT IPR plate coated with biotinylated anti-phosphotyrosine antibody (PY20, Zymed labs, CA) followed by incubation for 30 minutes at room temperature to allow the binding of the phosphorylated pEY substrate to the PY20 coated NPT plate. Following this binding step, 50 ng Sulfo-TAG labeled anti-phosphotyrosine in buffer containing 25 mM Tris-HCl buffer pH 7.4, 5 mM MgCl2, 0.05 mM Na3VO4, 0.004% TritonX-100, 2 mM DTT and 0.05% IgG was added followed by incubation at room temperature for 30 mm. The unbound reagents were removed by one time washing with water, and the TAG label was detected in presence of 150 μl IPR assay buffer (0.4 mM Gly-Gly buffer, pH 7.8, 1 mM EDTA, 0.1 M TPA). The ECL signals were measured using an imaging plate reader.
(§1) Proteins were produced in an in vitro transcription and translation reaction as described in the Materials and Methods. […] The reaction was stopped by mixing with BB2 buffer. Biotinylated proteins from 50 μl of the mixture (representing 0.5 μl to 5 μl of TnT reaction) were immobilized onto streptavidin or avidin coated NPT-IPR plates by shaking at room temperature for 45 min. The activity of the immobilized protein towards pEY or autophosphorylation was further assayed by the methods described in examples 7 and 8.

[1] = system: autophosphorylation (phosphotyrosine); test: In vitro kinase library screen: autophosphorylation; format: biochemical
Procedure: Proteins were produced from DNA plasmids of Mock Luciferase, Promega, tyrosine kinase clone Spleen Tyrosine kinase (SYK, IMAGE ID# 3870426) and Eph receptor-A7 (EphA7, IMAGE ID# 3991628) (Incyte Genomics, CA) and immobilized on streptavidin or avidin coated NPT-IPR plates as described in the Example 7. To promote autophosphorylation in these immobilized and purified proteins, Mn++ ions were added in a 50 μl reaction containing 5 mM MgCl2, 5 mM MnCl2, 100 μM ATP, 25 mM Tris-HCl buffer pH 7.4, 0.05 mM Na3VO4, 0.004% TritonX-100, 2 mM DTT and EDTA-free protease inhibitor (Roche Molecular Biochemicals). This mixture was incubated with shaking at room temperature overnight to allow autophosphorylation. Following this incubation, wells were washed 2 times with TT-buffer and 2 times with water. Following this step, 50 ng Sulfo-TAG labeled anti-phosphotyrosine in buffer containing 25 mM Tris-HCl buffer pH 7.4, 5 mM MgCl2, 0.05 mM Na3VO4, 0.004% TritonX-100, 2 mM DTT and 0.05% IgG in a final volume of 50 μl was added followed by incubation at room temperature for 45 min. The unbound reagents were removed by one time washing with water, and the TAG label was detected in presence of 150 μl IPR assay buffer (0.4 mM Gly—Gly buffer, pH 7.8, 1 mM EDTA, 0.1 M TPA). The ECL signals were measured using an imaging plate reader.
as §1

Row | Molecule | HTS signal (pEY) | ECL signal [1]
1 | 4013934: IMAGE clone protein: Ephb4, Eph receptor B4 (protein, UniProt P54761 16-987, looked up) Ephrin type-B receptor 4: LEETLLNTKLETADLKWVTYPQAEGQWEELSGLDEEQHSVRTYEVCDMKRPGGQAHWLRTGWVPRRGAVHVYATIRFTMMECLSLPRASRSCKETFTVFYYESEADTATAHTPAWMENPYIKVDTVAAEHLTRKRPGAEATGKVNIKTLRLGPLSKAGFYLAFQDQGACMALLSLHLFYKKCSWLITNLTYFPETVPRELVVPVAGSCVANAVPTANPSPSLYCREDGQWAEQQVTGCSCAPGYEAAESNKVCRACGQGTFKPQIGDESCLPCPANSHSNNIGSPVCLCRIGYYRARSDPRSSPCTTPPSAPRSVVHHLNGSTLRLEWSAPLESGGREDLTYAVRCRECRPGGSCLPCGGDMTFDPGPRDLVEPWVAIRGLRPDVTYTFEVAALNGVSTLATGPPPFEPVNVTTDREVPPAVSDIRVTRSSPSSLILSWAIPRAPSGAVLDYEVKYHEKGAEGPSSVRFLKTSENRAELRGLKRGASYLVQVRARSEAGYGPFGQEHHSQTQLDESESWREQLALIAGTAVVGVVLVLVVVIIAVLCLRKQSNGREVEYSDKHGQYLIGHGTKVYIDPFTYEDPNEAVREFAKEIDVSYVKIEEVIGAGEFGEVCRGRLKAPGKKESCVAIKTLKGGYTERQRREFLSEASIMGQFEHPNIIRLEGVVTNSVPVMILTEFMENGALDSFLRLNDGQFTVIQLVGMLRGIASGMRYLAEMSYVHRDLAARNILVNSNLVCKVSDFGLSRFLEENSSDPTYTSSLGGKIPIRWTAPEAIAFRKFTSASDAWSYGIVMWEVMSFGERPYWDMSNQDVINAIEQDYRLPPPPDCPTSLHQLMLDCWQKDRNARPRFPQVVSALDKMIRNPASLKIVARENGGASHPLLDQRQPHYSAFGSVGEWLRAIKMGRYEESFAAAGFGSFEVVSQISAEDLLRIGVTLAGHQKKILASVQHMKSQAKPGAPGGTGGPAQQF | 7,357 | 28,275
2 | 4238984: IMAGE clone protein: Kdr, kinase insert domain protein receptor (protein, UniProt P35918 20-1345, looked up) Vascular endothelial growth …: ASVGLPGDFLHPPKLSTQKDILTILANTTLQITCRGQRDLDWLWPNAQRDSEERVLVTECGGGDSIFCKTLTIPRVVGNDTGAYKCSYRDVDIASTVYVYVRDYRSPFIASVSDQHGIVYITENKNKTVVIPCRGSISNLNVSLCARYPEKRFVPDGNRISWDSEIGFTLPSYMISYAGMVFCEAKINDETYQSIMYIVVVVGYRIYDVILSPPHEIELSAGEKLVLNCTARTELNVGLDFTWHSPPSKSHHKKIVNRDVKPFPGTVAKMFLSTLTIESVTKSDQGEYTCVASSGRMIKRNRTFVRVHTKPFIAFGSGMKSLVEATVGSQVRIPVKYLSYPAPDIKWYRNGRPIESNYTMIVGDELTIMEVTERDAGNYTVILTNPISMEKQSHMVSLVVNVPPQIGEKALISPMDSYQYGTMQTLTCTVYANPPLHHIQWYWQLEEACSYRPGQTSPYACKEWRHVEDFQGGNKIEVTKNQYALIEGKNKTVSTLVIQAANVSALYKCEAINKAGRGERVISFHVIRGPEITVQPAAQPTEQESVSLLCTADRNTFENLTWYKLGSQATSVHMGESLTPVCKNLDALWKLNGTMFSNSTNDILIVAFQNASLQDQGDYVCSAQDKKTKKRHCLVKQLIILERMAPMITGNLENQTTTIGETIEVTCPASGNPTPHITWFKDNETLVEDSGIVLRDGNRNLTIRRVRKEDGGLYTCQACNVLGCARAETLFIIEGAQEKTNLEVIILVGTAVIAMFFWLLLVIVLRTVKRANEGELKTGYLSIVMDPDELPLDERCERLPYDASKWEFPRDRLKLGKPLGRGAFGQVIEADAFGIDKTATCKTVAVKMLKEGATHSEHRALMSELKILIHIGHHLNVVNLLGACTKPGGPLMVIVEFCKFGNLSTYLRGKRNEFVPYKSKGARFRQGKDYVGELSVDLKRRLDSITSSQSSASSGFVEEKSLSDVEEEEASEELYKDFLTLEHLICYSFQVAKGMEFLASRKCIHRDLAARNILLSEKNVVKICDFGLARDIYKDPDYVRKGDARLPLKWMAPETIFDRVYTIQSDVWSFGVLLWEIFSLGASPYPGVKIDEEFCRRLKEGTRMRAPDYTTPEMYQTMLDCWHEDPNQRPSFSELVEHLGNLLQANAQQDGKDYIVLPMSETLSMEEDSGLSLPTSPVSCMEEEEVCDPKFHYDNTAGISHYLQNSKRKSRPVSVKTFEDIPLEEPEVKVIPDDSQTDSGMVLASEELKTLEDRNKLSPSFGGMMPSKSRESVASEGSNQTSGYQSGYHSDDTDTTVYSSDEAGLLKMVDAAVHADSGTTLRSPPV | 107,459 | 61,364
3 | 4239139: IMAGE clone protein: Fgfr4, fibroblast growth factor receptor 4 (protein, UniProt Q03142 17-799, looked up) Fibroblast growth factor …: LSLEASEEMEQEPCLAPILEQQEQVLTVALGQPVRLCCGRTERGRHWYKEGSRLASAGRVRGWRGRLEIASFLPEDAGRYLCLARGSMTVVHNLTLLMDDSLTSISNDEDPKTLSSSSSGHVYPQQAPYWTHPQRMEKKLHAVPAGNTVKFRCPAAGNPMPTIHWLKDGQAFHGENRIGGIRLRHQHWSLVMESVVPSDRGTYTCLVENSLGSIRYSYLLDVLERSPHRPILQAGLPANTTAVVGSDVELLCKVYSDAQPHIQWLKHVVINGSSFGADGFPYVQVLKTTDINSSEVEVLYLRNVSAEDAGEYTCLAGNSIGLSYQSAWLTVLPEEDLTWTTATPEARYTDIILYVSGSLVLLVLLLLAGVYHRQVIRGHYSRQPVTIQKLSRFPLARQFSLESRSSGKSSLSLVRGVRLSSSGPPLLTGLVNLDLPLDPLWEFPRDRLVLGKPLGEGCFGQVVRAEAFGMDPSRPDQTSTVAVKMLKDNASDKDLADLVSEMEVMKLIGRHKNIINLLGVCTQEGPLYVIVECAAKGNLREFLRARRPPGPDLSPDGPRSSEGPLSFPALVSCAYQVARGMQYLESRKCIHRDLAARNVLVTEDDVMKIADFGLARGVHHIDYYKKTSNGRLPVKWMAPEALFDRVYTHQSDVWSFEILLWEIFTLGGSPYPGIPVEELFSLLREGHRMERPPNCPSELYGLMRECWHAAPSQRPTFKQLVEALDKVLLAVSEEYLDLRLTFGPFSPSNGDASSTCSSSDSVFSHDPLPLEPSPFPFSDSQTT | 7,343 | 12,588
4 | 4190326: IMAGE clone protein: Lyn, Yamaguchi sarcoma viral (vyes1) oncogene homolog (protein, UniProt P25911 2-512, looked up) Tyrosine-protein kinase Lyn: GCIKSKRKDNLNDDEVDSKTQPVRNTDRTIYVRDPTSNKQQRPVPEFHLLPGQRFQTKDPEEQGDIVVALYPYDGIHPDDLSFKKGEKMKVLEEHGEWWKAKSLSSKREGFIPSNYVAKVNTLETEEWFFKDITRKDAERQLLAPGNSAGAFLIRESETLKGSFSLSVRDYDPMHGDVIKHYKIRSLDNGGYYISPRITFPCISDMIKHYQKQSDGLCRRLEKACISPKPQKPWDKDAWEIPRESIKLVKKLGAGQFGEVWMGYYNNSTKVAVKTLKPGTMSVQAFLEEANLMKTLQHDKLVRLYAVVTKEEPIYIITEFMAKGSLLDFLKSDEGGKVLLPKLIDFSAQIAEGMAYIERKNYIHRDLRAANVLVSESLMCKIADFGLARVIEDNEYTAREGAKFPIKWTAPEAINFGCFTIKSDVWSFGILLYEIVTYGKIPYPGRTNADVMSALSQGYRMPRMENCPDELYDIMKMCWKEKAEERPTFDYLQSVLDDFYTATEGQYQQQP | 427,178 | 599,680
